Test results reported in patent publication US20150132305A1 (ADHERON THERAPEUTICS, published 2015).
No end group written: not given here.

B1: SDP051 humanized anti-Cad-11 EC1 antibody (Vκ1/VH5) (antibody, IgG4, V domains shown)
VH: EVQLVQSGAEVKKPGASVKVSCKASGYSFTGYFMNWVRQAPGQGLEWIGRINPYTGDTFYNQKFKGRVTITVDKSTSTAYMELSSLRSEDTAVYYCGRLGSRYWYFDVWGQGTTVTVSS
VL: DVLMTQTPLSSPVTLGQPASISCRSSQSIIHSNGNTYLEWYLQKPGQSPQLLIYKVSNRFSGVPDRFTGSGSGTDFTLKISRVEAEDVGVYYCFQGSHVPWTFGQGTKLEIK
notes: humanized IgG4 (S241P), kappa
B2: Cad-7 37-mer peptide linked to BSA (peptide, UniProt Q9ULB5 48-84, looked up)
peptide: SWVWNQFFVLEEYMGSDPLYVGKLHSDVDKGDGSIKY
modifications: also: linked to BSA
notes: also called Cad-7 antigen; Cad-7 peptide
B3: Cad-9 37-mer peptide linked to BSA (peptide, UniProt Q9ULB4 54-90, looked up)
peptide: GWMWNQFFLLEEYTGTDTQYVGKLHTDQDKGDGNLKY
modifications: also: linked to BSA
notes: also called Cad-9 antigen; Cad-9 peptide

What was measured:
[1] = molecular target: B3; test: ELISA, BSA-coupled 37-mer cadherin peptide coated at 500 ng/ml, A450
Description: (§1) REACTI-BIND™ plates (ThermoScientific) were coated with 500 ng/ml of the BSA coupled cadherin 37-mer peptide (NE peptide) corresponding to Cadherins-7, -8, -9, -11, -18, -20, and -24 in 0.05% TWEEN® detergent (EMD, product code 9480) in PBS (pH 7.2) (Gibco(Invitrogen), #20012) at 100 μl volume/well for overnight at 4° C. The peptide containing solution was removed from the well and the plate blocked with a 2% bovine serum albumin (BSA) in PBS, 200 μl volume/well, for 2 h at 22° C. The plate was then washed twice with 200 μl/well of PBS-TWEEN® detergent 0.05% at 22° C. and blotted dry. A dilution series from 5 μg/ml to 8 ng/ml in a volume of 100 μl/well of each the humanized anti-Cad-11 antibodies were incubated in the petide coated wells and incubated at 22° C. for 1 hr. Antibody solution was removed from the wells and the plate washed twice with 200 μl/well of 0.05% TWEEN® detergent-PBS at 22° C. and blotted dry. The goat-anti mouse IgG (Pierce #31432) was added to each well to plate at a 1:1000 dilution, 100 μl/well and incubate at 22° C. for 30 min. The secondary antibody solution was removed and the plate washed twice with 200 μl/well of 0.05% TWEEN® detergent-PBS at 22° C. and blotted dry. The reaction was developed by adding 100 μl/well tetramethylbenzidine (TMB) reagent IgG (Pierce #34022, 1 step Turbo TMB-ELISA) to plate and developed at 22° C. for 5 min.

[2] = molecular target: B2; test: as above
Description: as §1

[3] = molecular target: T1, recombinant Cad-11 EC1 human IgG1 fusion protein (R&D Systems Cat. No. 1790-CA-050) (human, UniProt P55287 54-617, limits assumed); test: competition ELISA on coated recombinant human Cad-11 EC1 fusion protein against biotinylated SYN0012 (0.1 µg/ml)
T1 construct: bought; also called recombinant human Cad-11 EC1; recombinant human Cad-11 fusion protein; not shown: human IgG1 part
T1 sequence: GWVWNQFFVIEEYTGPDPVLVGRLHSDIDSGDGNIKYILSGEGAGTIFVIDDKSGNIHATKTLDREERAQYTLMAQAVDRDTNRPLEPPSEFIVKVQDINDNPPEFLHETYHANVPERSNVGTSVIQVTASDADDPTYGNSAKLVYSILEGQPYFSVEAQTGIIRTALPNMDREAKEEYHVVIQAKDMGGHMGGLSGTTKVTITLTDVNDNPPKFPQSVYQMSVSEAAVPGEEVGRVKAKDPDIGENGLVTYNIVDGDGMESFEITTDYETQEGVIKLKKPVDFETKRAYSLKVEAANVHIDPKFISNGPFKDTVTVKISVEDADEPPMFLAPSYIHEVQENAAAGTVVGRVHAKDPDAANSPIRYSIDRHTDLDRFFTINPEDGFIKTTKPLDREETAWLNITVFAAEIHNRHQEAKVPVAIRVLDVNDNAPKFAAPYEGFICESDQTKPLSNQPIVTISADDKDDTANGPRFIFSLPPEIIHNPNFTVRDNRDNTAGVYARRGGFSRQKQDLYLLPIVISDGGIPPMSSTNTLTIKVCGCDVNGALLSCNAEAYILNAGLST
Description: (§2) The binding of the purified humanized composite variant antibodies (SDP011 to SDP151) to a recombinant Cad-11 EC1 human IgG1 fusion protein was assessed in a competition binding ELISA. A dilution series from 5 μg/ml to 0.0022 μg/ml of the humanized or control (SYN0012/H1M1) antibodies was premixed with a constant concentration of biotinylated murine anti-Cad-11 antibody, SYN0012/H1M1 (0.1 μg/ml, final concentration), before incubating for 1 hour at room temperature on a NUNC-IIMMUNO™ MAXISORP™ 96 well flat bottom microtitre plate (Fisher Cat. No. DIS-971-030J) pre-coated with 0.25 μg/ml recombinant human Cad-11 EC1 (R&D Systems Cat. No. 1790-CA-050) diluted in PBS. The binding of the biotinylated mAb was detected with streptavidin-HRP (Sigma Cat. No. 55512) and tetramethylbenzidine (TMB) substrate (Invitrogen Cat. No. 00-2023).
(§3) All of the humanized anti-Cad-11 antibodies efficiently competed with SYN0012 for binding to the Cad-11 fusion protein (FIGS. 38A to C). […] The curves were used to calculate IC50 values for each antibody and these were normalized to the IC50 of SYN0012, which was included on each ELISA plate so that comparisons between plates could be made (Table 3). The expression levels of each cell line and the calculated isoelectric point (pI) of each antibody are also shown (Table 3).

[4] = molecular target: T2, recombinant his-tagged human Cad-11 (R&D Systems) (human, UniProt P55287 54-617); test: SPR, rhCad-11 immobilized, SDP051 as analyte, 2-state reaction model
T2 construct: bought; also called rhCad-11; recombinant human Cad-11; not shown: his tag
T2 sequence: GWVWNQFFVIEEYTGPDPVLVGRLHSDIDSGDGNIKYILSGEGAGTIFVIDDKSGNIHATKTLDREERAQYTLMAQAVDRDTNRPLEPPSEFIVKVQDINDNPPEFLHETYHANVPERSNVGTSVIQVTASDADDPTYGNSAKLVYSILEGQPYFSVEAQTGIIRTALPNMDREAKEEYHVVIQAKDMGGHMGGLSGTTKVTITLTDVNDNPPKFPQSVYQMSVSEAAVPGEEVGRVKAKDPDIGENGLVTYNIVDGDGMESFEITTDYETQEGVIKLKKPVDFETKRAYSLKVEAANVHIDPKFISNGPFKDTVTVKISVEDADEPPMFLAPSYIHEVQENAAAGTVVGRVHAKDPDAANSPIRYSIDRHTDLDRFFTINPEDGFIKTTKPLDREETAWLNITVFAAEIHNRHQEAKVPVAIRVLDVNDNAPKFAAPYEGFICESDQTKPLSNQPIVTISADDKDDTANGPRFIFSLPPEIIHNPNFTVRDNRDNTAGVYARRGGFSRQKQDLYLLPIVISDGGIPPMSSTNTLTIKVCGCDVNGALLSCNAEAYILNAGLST
Description: (§4) To determine the affinity of SDP051 for recombinant his-tagged human Cad-11, rhCad-11 (R&D Systems) was immobilized to the chip at a single concentration, high resolution kinetics were determined for SDP051, and a 2-state reaction binding model was successfully fitted to the kinetic data.
(§5) Kinetic data were obtained at a flow rate of 40 μL/min to minimize any potential mass transfer effects. An analyte concentration series ranging from 12.5 nM to 0.195 nM was prepared by serial dilution. Two repeats of the blank (no mAb) and the 3.125 nM (first and last cycle) concentration of the analyte were programmed into the kinetic runs in order to check the stability of both the surface and analyte over the kinetic cycles. The SDP051 was injected over the Fcs for 360 seconds, long enough to observe the curvature in association phase.

[5] = molecular target: T1, recombinant Cad-11 EC1 human IgG1 …; test: competition ELISA against biotinylated SYN0012/H1M1 (competitor) on coated fusion protein; text says values are normalised to the IC50 of SYN0012
Description: as §2, §3
The relative IC50 was calculated by dividing the value for the test antibody by that of SYN0012. Antibody expression levels given are for static cultures in T flasks. PI are calculated.

[6] = molecular target: T2, recombinant his-tagged human Cad-11 …; test: SPR, rhCad-11 immobilized, SDP051 as analyte, 2-state reaction model; kd1
Description: as §4, §5

[7] = molecular target: T2, recombinant his-tagged human Cad-11 …; test: SPR, rhCad-11 immobilized, SDP051 as analyte, 2-state reaction model; ka1
Description: as §4, §5

[8] = molecular target: B1; test: flow cytometry blocking assay: peptide titrated with SDP 051 at 0.5 ug/ml on Cad-11 expressing 431D cells; blocked: binding of SDP051 to cell-surface Cad-11; MFI
Description: Cells were the stained on ice for 45 minutes with increasing concentration of either the 37-mer Cad-11 peptide or Cad-7, Cad-8, Cad-9, Cad-18, Cad-20, or Cad-24 peptides with […] SDP051. After staining the cells were washed twice with Hanks balanced salt solution (HBSS) containing 1% fetal bovine solution (FBS), resuspended and then stained with a 100 μl of goat anti-mouse IgG-PE (100× dilution) on ice for 30′ protected from light. After staining the cells with the secondary agent, cells were washed twice with HBSS with 1% FBS, resuspended and fixed in 200 μl of 2% formaldehyde in HBSS with 1% FBS and then analyzed with a BD FACSCALIBUR™ machine.

Row | Binder | binding result [1] | IC50 [5] [µg/mL] | binding result [8] | further results
1 | B1 | no binding (tested: 5000 ng/ml) | 0.99 |  | binding result [2]: no binding (tested: 5000 ng/ml); IC50 (read off the curve) [3]: ~0.2 µg/mL; Kd [4]: 0.379 nM; koff [6]: 0.0043 s⁻¹; kon [7]: 613000 M⁻¹ s⁻¹
2 | SDP071 humanized anti-Cad-11 EC1 antibody (Vκ2/VH2) (antibody, IgG4, V domains shown, humanized IgG4 (S241P), kappa) VH: EVQLVQSGAEVKKPGASVKISCKASGYSFTGYFMNWVKQAPGQGLEWIGRINPYTGDTFYNQKFKGRATLTVDKSTSTAYMELSSLRSEDTAVYYCGRLGSRYWYFDVWGQGTTVTVSS VL: DVLMTQTPLSSPVTLGQPASISCRSSQSIIHSNGNTYLEWYLQKPGQSPQLLIYKVSNRFSGVPDRFSGSGSGTDFTLKISRVEAEDVGVYYCFQGSHVPWTFGQGTKLEIK | no binding (tested: 5000 ng/ml) | 0.33 |  | 
3 | SDP061 humanized anti-Cad-11 EC1 antibody (Vκ2/VH1) (antibody, IgG4, V domains shown, humanized IgG4 (S241P), kappa) VH: EVQLVQSGPELKKPGASVKISCKASGYSFTGYFMNWVKQAHGQGLEWIGRINPYTGDTFYNQKFKGRATLTVDKSSSTAYMELVSLSSEDSAVYYCGRLGSRYWYFDVWGQGTTVTVSS VL: DVLMTQTPLSSPVTLGQPASISCRSSQSIIHSNGNTYLEWYLQKPGQSPQLLIYKVSNRFSGVPDRFSGSGSGTDFTLKISRVEAEDVGVYYCFQGSHVPWTFGQGTKLEIK | no binding (tested: 5000 ng/ml) | 0.47 |  | 
4 | B2 |  |  | no binding (tested: 3000 ng/ml) | 
5 | B3 |  |  | no binding (tested: about 80000 ng/ml) | 
